From PMC3797752

Tests used:
[1] = target: 22-mer tyrosine-sulfated biotinylated N-terminal CCR5 peptide; experiment: SPR; qualitative; ~5000 RU of biotinylated CCR5 peptide on an SA chip; 100 nM gp120 proteins injected at 10 µl/min, alone or pre-incubated with 2-fold molar excess of sCD4; 25°C; HBS-EP buffer; compared at time = 300 s
soluble CD4 (sCD4) = soluble CD4 (sCD4) (UniProt P01730); experiment: SPR; BIAcore 3000; ~200 RU of sCD4 or mAb immobilised directly on a CM5 chip via amine coupling; varying concentrations of gp120 injected at 80 µl/min; 25°C; HBS-EP buffer; 1:1 Langmuir fit
[2] = target: wild-type SF162 gp140 (cleavage-defective) (HIV-1 SF162); experiment: not stated; oligomeric state of the purified glycoproteins; method not given

Substance: gp120+sCD4 (sCD4-liganded, wild-type gp120) (from UniProt P01730) (complex)
- fold better binding than gp120 [1]: > 10 fold

Substance: wild-type SF162 gp120 (natural protein)
- Kd (soluble CD4 (sCD4)): 24.5 nM

Substance: wild-type SF162 gp140 (cleavage-defective) (natural protein)
- stoichiometry N [2]: 3
